This is an account of results in patent publication US7994281 (EUROPEAN MOLECULAR BIOLOGY LABORATORY, dated 2011).

Residue numbers refer to the chain shown, from its start. Names may count otherwise.

Assay [1] deals with T1, DR4 (TRAIL-R1) Fc, recombinant receptor from R&D Systems (UniProt O00220 24-239, limits assumed).
T1 construct: also called soluble TRAIL-R1 Fc; not shown: Fc part of the bought Fc fusion
Kind of assay: SPR, Biacore 3000, 25 C, receptor amine-coupled to CM5 chip, ligand 2 ug/ml. As for the experimental part: (§1) Binding experiments were performed using a surface plasmon resonance-based biosensor Biacore 3000 (Biacore AB, Uppsala, Sweden), at 25° C. Recombinant receptors were ordered from R&D systems (R&D systems, Minneapolis, Minn., USA). Immobilization of the receptors on the sensor surface of a Biacore CM5 sensor chip was performed following a standard amine coupling procedure according to the manufacturer's instructions. A reference surface was generated simultaneously under the same conditions but without receptor injection and used as a blank to correct for instrument and buffer artifacts. […] Binding of ligands to the receptors was monitored in real-time. The receptor/sensor surface was regenerated using 3 M sodium acetate pH 5.2 injections.
(In general: In SPR one partner is held on a chip, and binding of the other changes the refractive index at the surface.)

Assay [2] concerns the target T1, DR4 (TRAIL-R1) Fc, recombinant receptor …. Kind of assay: SPR (Biacore 3000, 37 C): purified ligand at 60 nM over immobilised receptor Fc.
Assay [3] shares this target. Kind of assay: SPR, Biacore 3000, 37 C, receptor Fc on CM5 chip, ligand 0.1-250 nM. On the procedure: (§2) Binding experiments were performed using a surface plasmon resonance-based biosensor Biacore 3000 (Biacore AB, Uppsala, Sweden), at 37° C. Recombinant receptors were ordered from R&D systems (R&D systems, Minneapolis, Minn., USA). […] Receptors were coated at a level of ~600-800 RU. […] Between injections the receptor/sensor surface was regenerated using 30 µl of 3 M sodium acetate pH 5.2.

Assay [4] has as its target T2, DR5 (TRAIL-R2) Fc, recombinant receptor from R&D Systems (UniProt O14763 54-182, limits assumed).
T2 construct: also called soluble TRAIL-R2 Fc; immobilized TRAIL-R2 Fc; not shown: Fc part of the bought Fc fusion
The description is as above. On the procedure: as §2

For assay [5], the target named is T1, DR4 (TRAIL-R1) Fc, recombinant receptor …. The assay is described as follows: SPR (Biacore): clarified E. coli extract diluted 1:50 injected over immobilised DR4, DR5, DcR1 and RANK; bars are the response as a fraction of the DR5 response. As for the experimental part:
(§3) Control extracts of BL21 (DE3) culture without an over-expression plasmid and of a BL21 (DE3) culture with plasmid over-expressing SH3 domain were also injected.

In the next assay the target is T3, murine RANK (receptor) (murine, UniProt O35305 31-214, limits assumed).
T3 construct: Control surface in the SPR screening
T3 sequence (looked up): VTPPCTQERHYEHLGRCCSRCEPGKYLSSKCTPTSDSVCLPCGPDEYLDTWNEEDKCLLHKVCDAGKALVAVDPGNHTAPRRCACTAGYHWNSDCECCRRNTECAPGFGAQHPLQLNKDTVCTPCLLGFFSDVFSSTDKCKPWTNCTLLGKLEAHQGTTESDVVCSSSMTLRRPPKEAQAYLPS
Kind of assay: SPR (Biacore): clarified E. coli extract diluted 1:50 injected over immobilised DR4, DR5, DcR1 and RANK; bars are the response as a fraction of the DR4 response. On the procedure:
as §3

For assay [6], the target named is T1, DR4 (TRAIL-R1) Fc, recombinant receptor …. The assay is described as follows: SPR (Biacore 3000, 25 C): ligand at 2 ug/ml injected over receptor amine-coupled to a CM5 chip. On the procedure:
as §1

For assay [7] the target is unchanged. Kind of assay: SPR, Biacore 3000, 37 C, receptor on chip, 1:1 Langmuir global fit, preliminary apparent Kd. On the procedure: (§4) Binding of the purified mutants was assessed in real time using surface plasmon resonance on a Biacore 3000 with a sensor chip as described above. […] Measurements performed at 37° C. to allow increased $koff$ and dissociation was monitored for 20 min. Measured $kon$ and $koff$ rates were used to calculate apparent K_d values for the mutants for the respective receptors. A global fit procedure was used and a 1:1 Langmuir interaction model.

Assay [8] concerns the target T2, DR5 (TRAIL-R2) Fc, recombinant receptor …. The assay is described as above. On the procedure: as §4
The target of assay [9] is T4, DcR1 (TRAIL-R3) Fc, recombinant receptor (UniProt O14798 26-221, limits assumed).
T4 construct: not shown: Fc part of the Fc fusion
T4 sequence (looked up): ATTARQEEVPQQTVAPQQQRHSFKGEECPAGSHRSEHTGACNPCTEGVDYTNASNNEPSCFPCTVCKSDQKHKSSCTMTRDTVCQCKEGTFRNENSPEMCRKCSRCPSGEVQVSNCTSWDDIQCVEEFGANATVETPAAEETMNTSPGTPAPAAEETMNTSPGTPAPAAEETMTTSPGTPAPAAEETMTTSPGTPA
Kind of assay: SPR, Biacore 3000, 37 C, receptor Fc on CM5 chip. On the procedure:
as §2

For assay [10], the target named is T1, DR4 (TRAIL-R1) Fc, recombinant receptor …. The assay is described as follows: SPR (Biacore), E. coli extracts diluted 1:50 over immobilised receptor. As for the experimental part: as §3
The target is the same in assay [11]. Kind of assay: SPR, receptor Fc immobilised, ligand 0.1 to 250 nM. As for the experimental part:
as §2
(§5) Combinations between the stability variants and selectivity variants described above can be made, giving variants with enhanced stability and altered selectivity/specificity. […] Mutants were tested for receptor binding and biological activity as described in Examples 1, 2 and 3.

The target of assay [12] is T2, DR5 (TRAIL-R2) Fc, recombinant receptor …. The assay is described as follows: SPR, receptor Fc immobilised, ligand 0.1 to 250 nM. As for the experimental part:
as §2, §5

T2 sequence (O14763 54-182 limits assumed): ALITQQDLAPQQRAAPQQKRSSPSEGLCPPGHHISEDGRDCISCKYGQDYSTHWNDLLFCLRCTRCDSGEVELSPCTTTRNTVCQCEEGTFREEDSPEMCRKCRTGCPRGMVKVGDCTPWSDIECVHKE
T1 sequence (O00220 24-239 limits assumed): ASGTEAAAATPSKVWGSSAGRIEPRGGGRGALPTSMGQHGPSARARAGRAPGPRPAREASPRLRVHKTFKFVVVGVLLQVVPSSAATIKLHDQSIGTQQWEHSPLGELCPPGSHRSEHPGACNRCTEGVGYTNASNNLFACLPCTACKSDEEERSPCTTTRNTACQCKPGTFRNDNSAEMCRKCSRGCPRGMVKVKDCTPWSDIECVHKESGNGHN

B1: TRAIL mutant C1 (M1 + M3: E194I, I196S, S225A) (ligand)
chain: VRERGPQRVAAHITGTRGRSNTLSSPNSKNEKALGRKINSWESSRSGHSFLSNLHLRNGELVIHEKGFYYIYSQTYFRFQIESKENTKNDKQMVQYIYKYTSYPDPILLMKAARNSCWSKDAEYGLYSIYQGGIFELKENDRIFVSVTNEHLIDMDHEASFFGAFLVG
notes: Combination of M1 and M3 on soluble TRAIL 114-281
As for B1, the binding result in assay [1] is given as “binds”.

B2: TRAIL mutant D269HT214R (ligand)
chain: B1 chain with I81E, S83I, T101R, A112S, D156H
notes: also called T214R-D269H
For the molecule B2, the binding result in assay [2] is “no binding (tested: 60 nM)”.

B3: TRAIL mutant D269R (ligand)
chain: B1 chain with I81E, S83I, A112S, D156R
B3: in [3], the “fold reduction in binding relative to wild-type TRAIL” value was above 15 fold. The “fold improvement in binding relative to wild-type TRAIL” value in [4] was above 10 fold.

B4: TRAIL mutant I220M (ligand)
chain: B1 chain with I81E, S83I, I107M, A112S
For the molecule B4, the binding result in [5] is given as “binds”.

B5: TRAIL mutant R149D (ligand)
chain: B1 chain with R36D, I81E, S83I, A112S
B5: the binding result in [5] is reported as “binds”.

B6: TRAIL mutant D218R (ligand)
chain: B1 chain with I81E, S83I, D105R, A112S
On to B6, for which the binding result with murine RANK (receptor) was “no binding”; in assay [5], “binds”.

B7: TRAIL mutant M1 (E194I, I196S) (ligand)
chain: B1 chain with A112S
notes: Stability mutant built on soluble TRAIL 114-281
For the molecule B7, in [6], the binding result is “binds”.

B8: TRAIL mutant D269H (ligand)
chain: B1 chain with I81E, S83I, A112S, D156H
In the case of B8, the Kd is 0.6 nM in assay [7] and below 0.4 nM in assay [8]. For the same molecule, the “fold reduction in binding relative to wild-type TRAIL” value in assay [3] was above 15 fold. The “fold improvement in binding relative to wild-type TRAIL” value in assay [4] is above 10 fold. The “fold decrease in binding compared to wild-type TRAIL” value in assay [9] is around 10 fold.

B9: TRAIL mutant R149H (ligand)
chain: B1 chain with R36H, I81E, S83I, A112S
As to B9, the binding result in assay [5] is listed as “binds”.

B10: TRAIL mutant G160K (ligand)
chain: B1 chain with G47K, I81E, S83I, A112S
In the case of B10, the binding result is on record as “no binding” in the assay with murine RANK (receptor) and “binds” in assay [5].

B11: TRAIL mutant M2 (D203I, Q205M, Y237F) (ligand)
chain: B1 chain with I81E, S83I, D90I, Q92M, A112S, Y124F
notes: as for B7
As to B11, in [6], the binding result is reported as “binds”.

B12: TRAIL mutant D218Y (ligand)
chain: B1 chain with I81E, S83I, D105Y, A112S
Regarding B12, the figures for the binding result (in the assay with murine RANK (receptor); in assay [5]) were “no binding” and “binds”, respectively.

B13: TRAIL mutant D269HE195R (ligand)
chain: B1 chain with I81E, E82R, S83I, A112S, D156H
B13: the “fold reduction in binding relative to wild-type TRAIL” value in assay [3] was above 15 fold. Further, the “fold improvement in binding relative to wild-type TRAIL” value in assay [4] was above 10 fold.

B14: TRAIL mutant E195R (ligand)
chain: B1 chain with I81E, E82R, S83I, A112S
On to B14, for which, in assay [10], the binding result is “binds”.

B15: TRAIL mutant D218F (ligand)
chain: B1 chain with I81E, S83I, D105F, A112S
On to B15, for which, in assay [5], the binding result is “binds”.

B16: TRAIL mutant D269K (ligand)
chain: B1 chain with I81E, S83I, A112S, D156K
As for B16, the “fold reduction in binding relative to wild-type TRAIL” value in assay [3] was above 15 fold. The “fold improvement in binding relative to wild-type TRAIL” value in [4] is above 10 fold.

B17: TRAIL mutant R130E (ligand)
chain: B1 chain with R17E, I81E, S83I, A112S
Regarding B17, the binding result in the assay with murine RANK (receptor) is reported as “no binding”; in assay [5] it was “binds”.

B18: TRAIL mutant G131R (ligand)
chain: B1 chain with G18R, I81E, S83I, A112S
For B18, the values for the binding result (with murine RANK (receptor); in assay [5]) were “no binding” and “binds”, respectively.

B19: TRAIL mutant G160M (ligand)
chain: B1 chain with G47M, I81E, S83I, A112S
As to B19, the Kd in [7] worked out at 0.4 nM; in [8], 0.5 nM. Further, the binding result with murine RANK (receptor) was “no binding”.

B20: TRAIL mutant E155M (ligand)
chain: B1 chain with E42M, I81E, S83I, A112S
Regarding B20, the binding result in assay [5] was “binds”.

B21: TRAIL mutant I220H (ligand)
chain: B1 chain with I81E, S83I, I107H, A112S
For B21, the binding result in [5] is reported as “binds”.

B22: TRAIL mutant M3 (S225A) (ligand)
chain: B1 chain with I81E, S83I
notes: as for B7
On to B22, for which the binding result in [1] is “binds”.

B23: TRAIL mutant R191ED267R (ligand)
chain: B1 chain with R78E, I81E, S83I, A112S, D154R
With B23, the binding result in assay [2] is listed as “no binding (tested: 60 nM)”.

B24: TRAIL mutant D269HM1 (D269H combined with M1: E194I, I196S) (ligand)
chain: B1 chain with A112S, D156H
Regarding B24, the “fold reduction in binding relative to wild-type TRAIL” value in assay [11] was above 8 fold. Further, the “fold improvement in binding relative to wild-type TRAIL” value in [12] was above 8 fold.
